This note sets out measurements from a protein production outcome set (Wang et al. 2014).

The nature of this data set: label from the status in PepcDB records.
As for “MPGTVSPAPSLQSTTARICPSIRRPTMSRFGALRLPLAVCLAVLLTIASGPARAQPADAPLDEADYGQWERLGGATLSPEGTWMATPIRRVNGNHELRIHHTRRDTTRTVAFGRSPAFSADGQWLAYSIGMSEERRKKRRKQEKPVRRRLGLLNLATGDTTVVPAVSGFAFSDGGRYLAMRRYPPQEAPDDLRGADLLVRDLEAETYTSFGNVADMAWQHEAPHLALTIDGRTETGNGVRLYDAATGRLQTLASTPGDYTGLSWRPAEDDLAALRARDSDDWQHETHVVLAWTGVNDGAPERRQFDPATAGAFPDSLRIVDHRTPAWATERERLFFGVQKREAVAPDTAQADSAAADSLEDYGPAGVKVWHTSDVEIIPRQEVQAEQDREDNYLTAWHLGRSGEAHWTRLGTELTEDVQVLHGGARAVGLDQTPYREERMFGPVYHDLYAIDVATGEREQVAEKVQFFEGPSANGRYLLWLKNDQYHAYDLQQETTNTITADVPVPVVDVDDDHTVEQKPPFGIAGWTAGDRSVLVYSEYDVWRIAPDGSSTERLTTGRADSVRHRYVDLTDEAPGEADVIPRNEPIYWDLYDEWTEEHGYARASALTDTPERMVWKPKMMTGLTKADSADVYAYRVEDFEDSPDYFRAGPQLADARQVTSTNPFQDDYAWGRSDLVAFRNANGKKLQGALFYPADYDPDKTYPMITYIYETRSPQARSYVVPTREHPYNTTTFTQEGYIVFQPDITYRPRDPGNSAVDAIVPGVQAAAEAAAVDTSRIGLVGHSWGGYQTTFTATQTDLFATAVAGAPLTNMVSMYNSIYWRSGGTDARIFEISQGRMGVPPWEDMDAYVANSPLHHIESLNTPFLMAFGTDDGAVEFNQGVEFYNAARRADKELAFLVYDGENHGISRKEKNTVDYRNRVLEWFDHYLKGDEGPAWIQDGVPFLEQVERQEEAAVSR”, the protein production result is on record as “failed”.
As for “MPHFTKRPAQPQAALAEAAGLRWLAEASSAVAQVVSADAEQITTVGVETQLPTPDAAFKAGEELARIHLAGAPAFGCPPAGWAGLNYIGTQGQACLSTPTWGVFYSQQRVLPFARRARRRNHLTEHALWVVEAACDLISELPDDVPPARIHGDLWFGNLLFGTDGPVFIDPAAHGGHPETDLAMLDVFGAPYLDEIREGYLSINPLPDGWRERTPMHQLHPLAVHAASHGPSYGVELLHAAKATLKLLDLEHHHHHH”, the entry is “failed”.
“MPHLRTILPQLRNNWFFIALLTSCGLWCFFAPSLLGALLFSITVIRIVCTKSFPVILGGFLCSFLIVGGILIFQWLKPVSLLPKEVRLSGQLTILPDEIQVDGDQVKFPANWIVKGKRQKVMAFYQLKSVKEKQQWQQLTTTIQATAVGILDSPQGQTNKNGFNYQLFLKNQGIEAILFIEEIGQPRSFFSWRFKEIISGWRKWAMVHIQKNFAETSAMYMNALLLGFRNEEFAEISDKFSALGILHLFSLSGMHVSFFLRLFRLLMLRIARRTQESYFLWQCGFSLIYAGLTGFSVSVMRALLQTNLNTFNRRFNWQVPALDCWSLTLLVHLIVQPTLFFSVGGQFSYLLSFVLLFLEQTLVGYSSPFIKNCLGSFLLAVASLPILVQSFYEWPLLGSFLTFLLLPIFERFLLPLLTLSFFLVIIMPARYLAALLEPLFLTMNGLFEWVLVHLNPKLTIGYLNSWIQISLLLLIGFSMIYLADKSKKIFFSIGLLIVLINSKYLSPIGIVAMIDVGQGDSLFIQAPFHRKNTLIDTGGRLSFGKEAWRQRKNSRSGAEYSVIPFLKSQGVKRLDEVIITHAHEDHFGDLLAIAQKVPISVLYFPKGAAEANFSFRQVLKQLQKSGTDCRPILAPKRINGPVSFQILSPNKSSIGGNNDSIVFSTQLGGRHFLFTGDLEAEGEEQVLARYPQLKIDILKVGHHGSKTSSTKRFIKQLNPREALISAGLNNRFKHPHQETLATLEEQKINYYRTDLQGMIYYQWLPWQGLSKAKFVKEQD”: the protein production result is reported as “failed”.
In the case of “MPHPAERSRHGRGWFEKLAEAASNLTSSPVFYCFCLLLVFAFIVAHAVGLELTWQLLIGDIMTAVNLLLLALLKNSERRAEHAIQHKLDSIAAALLEQREGHSRQAHEELRKAIGIEDEF”, the protein production entry is “failed”.
As for “MPHPATMFFLFTLAVIFLSWIFDIYGLRVQLPQTGAEIRVQSLLSPEGIRWMLRNAITNFTGFAPLGMVLIAMFGIGVAQHSGFIDACVRQGVKNRKNTKRIILWVIILGLLSNIVGDAGYIILLPIAATLFYSVGLNPVAGIITAYVSVSCGYSANVVLSTMDPLIARTTQEAAIDSGVYQGNTGPLCNYYFMSVSTFVIGAIIYRITCKRLIPSLGQYEGKQIFEGYKQLSRKERRAMTMAIVMGMLYAAIILWATFSSWGILRGVNGGLIRSPFIMGILFLLSLGAAIMGMVYGFSSGRYRSDNDVIEGLAQPMKLLGGYLVIAFFAAQMFACLEYSHLDKCVAIIGANLLSSVQADPLWTLILFILFTATINLIMVSATAKWAFMAFIFVPVFARMGIEPDMTQCAFRIGDSATNAITPFMFYMPLVLTYMQQYDKQATYGSLLKYTWRYSVYILIGWTMLLFIWYLTGLPLGL”, the protein production entry is reported as “failed”.
With “MPHSSTNITKAVLQGRGLYPISLVTGAMFTEEMYVVLESTTRAETFLTPMELQAKLMEYLTGTEVSLSPDLLALPDVESRAQYLMTTACELQLANGGYLQWYAVRLEKLEHHHHHH”, the protein production result is listed as “not failed”.
On to “MPIELRRLRALRLAWGVALCLAVSFGIGLPVPILAPVFAVLLLAMRSQPLPLRAAPALALLVLLACGSGLLLIPLLRHAPLAGVLLVGVGVFLTLRYALKGGNGLLANLLVVGLTMIAAAGTSDFTLALSVVEALAKGMLLAVLGTSVVHTLFPEPANAPAPPVPPLLGSEHVSWVALRATLIVMPAFLLALIAPDQYMPLIMKAVSVGQQAGETRARHASRELIGSTLLAGVLAIALWVALSLFVHLWMFFLWVLLFALWQARRLYQAVPSRQSPAYWVSCLTTMLILLGQSVQDSAGGQDVYKAFAVRMALFLAVSVYASAMLIWIDRLRSRRGLLRG”, for which the protein production result is “failed”.
As for “MPIHSLSLAGFRSIRKLTLELDALNVVVGANGCGKSNLYKSIQLLHAAAEGGLSAALAAEGGAQKAMWAGGTRRGDKARVPKRMILSARLDDYDYELQLGYPEPSCSLFALDPLVKEESLWLAGHGRRPSTLLLERRNQAAFLCGVEGERNSYPASLRAEESLFGQLAEPHRYPELSQVRETLRNWRFYHEFAIWPGSPLRAPQVGIRSPVLAHDGANLAAAFQTIVEIGDHELLHSVLTDAFPDSRFLVDAQQGRFQMLMRRDGLLRPLEAAELSDGTLRFLCLAVALLSPRPPAFMALNEPENSLHPALLPALARLIAEASRHSQLWVTSHSPELAERIRRHRPLKTFQLSLRDGETVLQDDLEHHHHHH”, the entry is “failed”; as for “MPIIGTKELITCDNTDFIHSGNDADRSGFILSVPVFGQDGSLRGSVSAIMLTSALRKLLPGSDYVIVNSGYGFESDQHKMSTALAADSRAFTAADPNLIYSEVIPLSLNDPRSAWRLWAGFPNSRFDNNMDVQSVRQFELAGYAAVAVVTLLALACWYAIGRTMTMQVEAAETLERRVEQRTAQIQHLATHDILTGLPNRGLLADTMDEALRSLRDDEKLAVHCVDLDRFKPVNDTLGHPIGDQLLGAVAKRLKHHAGETAMVARIGGDEFVILQLLLDGNDEAGVLASRVIHALSDEFSIQGHKINIGGSIGIAVFPDDGQNSETLIRNADLALYKAKMEGRGTCRSFEPGMDARLQERRQLESELALGVKKEQFVLHYQPLHDAKTSQLTGFEALVRWNHPRLGLLAPSEFIQLAEETGAIDALGEWIMRRACADAAKWPQPVKVAVNLSPAQFKQQGLSLQVAAALAASGLLPSRLELEITESVLLANNENTLNTLYSLRDLGISIAMDDFGTGYSSLSYLRSFPFNRIKIDRSFVSLMCESSESRAIVKAVAELGTTLGMTTTAEGVETEDQYRLVKENGCTDVQGWYFGRPMPASELHTLFEQPEALTA”, “failed”; as for “MPIKKNSHVKTTEMNKYPVLQLKRDPEAIHHYLNGEIRILVPTEYQRIKNEISQKRHRTLFDVLMITGMRYVEVQRLWDHKEWYLKKKNIIHLPEEAQKKHKRTQQERTIHPLPGMFELLLDDFFEARKPPAESNWNRDLRKWAKDAGLNPYGLSAKTTRKTLESWCIAAGMLESTVCLRQGHDNLTSMKHYQGLAFSADELKDIEKQLTVWGMLK”, “failed”.
Turning to “MPIKVKYYGNVVFASDAVCGQAENYATLKAMKEVGNYTISIQTFENAENVYPEEFLAKPVADEHYLTTEDGSVGIKGHYLDIVKELIEKDKVDIIFAGGKLGSLAKLAELTRPYGIPTLEHHHHHH”, the protein production entry is “failed”.
As for “MPIPKSAKSDYTKEQKDLVGNICQCKDFYKILNVDKKASPDEIRIAFRKRIREVHPDKCKHPSATEASKVVNNAFSLLMDPAKRRQYDLQ”, the entry is “not failed”; as for “MPIPLEKQNKERRQKILTCSLDLFIEKGYYNTSIRDIIALSEVGTGTFYNYFVDKEDILKNLLEDFAKQIISSISEYYLVEKDLYERFIETKRLTMEVFAQNETLSEIYSRVAGSSAPIDQCLKQFEDRLLEFYSRNIEYGIKKGVFKNVPVSPIAHSILAIEKFSLYKWVVLKAITKEEMIEMVLSFHKTLAVGLLVVND”, “not failed”.
“MPIVVFHKGDETFTDEVKDNTNLVVRAGIKQFPYPNLRYQCGMGKCATCACRILAGGEHLPEPNWKEKKQLGDRLAQGYRLACQLWITHDIELRQDAAAPAGGGD”: the protein production result is listed as “failed”.
To “MPKASDIKKGSAIEHNGKVFFVKEISKLTPSGRAGATLFRMRMYDVATGAKSDESFKADDMINLADFSRRSATFSYVDGNEYVFMDSEDYTPYNFNKEAIEEELLFITEETQGLQILIVDGAPVAIELPSAVDLEIVETAPSIKGASASARTKPATMTTGLTVQVPEYIANGEKVKINTTEHKFMSRALEHHHHHH” belongs “failed”; to “MPKEQPLYLQIVDDLEVKIKKSMTENDKLLSERELSDLYGVSRITIRLTLKELELRDLIYKKQGKGTYVSGIKEPATDLSSTYSFTEQMKKMGKTPKTEILSFEQYQVTPYLSGLLELDPDTEVFELERLRIADDMPLMFERSYIPAQPFQGLSIADLKRKALYDIFAKDYQETIRLAEEEFYASIALDYEAGLLGIKKGDPVLHIIRKTYNDKNILIELTFSIARADQFRYRVQHHPNG”, “failed”; to “MPKIAKELSALEVKRLTCRIDPETGEATEVRYPVGGVSGLLLRITPSGSRQWILRAKVGNRRPDMGLGPYPEISLAQARDKAREMKEKIRSGIDPLEEKRTLKRALLAEQISTLTFQKAMEKYIKMKAKEFRNPRQEKQWTNSLNTYAIPHLGKLPVREIDLPHIKQVLDPIWETKTETANRVRARIENILGWCAIHGYRSAENPARWQGYLDEVYPSPEKIKKRGHFAALPVDDMPEFMRDLKKRTGTAARALEFLILTASRTNEVIGDKRIGKAGVTWQEIDLARKVWTVPADRMKSEKIHRVPLTDSAIELLKGMGEGSPEDLIFPGPKGGIPSNNFLTALLKRMERPITAHGFRSTFKDWARERTAYADEVSELALAHVNSDATRAAYARSELIDKRRLMMADWEQFCMHGETKKESGKVVAIGEGKG”, “failed”.
As for “MPKIIEAIYENGVFKPLQKVDLKEGERIKLRIEEGILDVIKKYQGKFKLTEKDIEKFLEERRLEHHHHHH”, the entry is “not failed”.
To “MPKKGSDPVWCVVMFDLPVKTKTQRKQATAFRQNLLDLGFCMAQLSVYVQYLPLAAKLSNLVKLIKEKLPPGGDVRILSVSDIQWSKMIRFSSSAEVSGEEKPDQLAIFLEHHHHHH” belongs “not failed”; to “MPKKRENRGRRKGDKGHVGYISCDQCGARVPEDKAVCVTKMYSPVDASLASELEKKGAIIARYPVTKCYCVNCAVFLGIIKIRAENERKQKARLRLEHHHHHH”, “failed”.
As to “MPKLDLDSIERRIGSVYPGRLNAAMDGRSSLRLGDAGGLSQFGVNLVRLEPGAKSSLRHYHMEQDEFVMVTEGALVLVDDQGEHPMVPGDCAAFPAGDPNGHQFVNRTDAPATFLVVGTRTPTETAYYSDMDMMVKQDASGFAFTRKDGSPLTADQIGDDNE”, the protein production entry was “not failed”.
